± gives the standard deviation of the averaged measurements.

This data set relates to Saccharomyces cerevisiae. Briefly: protein stability index of tFT-peptide fusion (C-terminal peptide) (PSI (0-1 scale)); higher = more stable (slower turnover). The settings on record: temperature: 30 C. As to the method: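 MPS profiling in S. cerevisiae of the yeast C-terminome library: the last 12 aa of each annotated ORF are fused to the C-terminus of a sfGFP-mCherry timer, after a GGGS linker. Cells are FACS-sorted into 8 mCherry/sfGFP bins and deep-sequenced. PSI runs from 0 (unstable) to 1 (stable); wild type and das1Δ backgrounds, two technical replicates each.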

The mark [1] stands for this setting: genetic background: das1 deletion.

Turning to LRLKGNAKAPGA [CLC1 C-terminal 12 aa], the protein stability index reads like this: under setting [1], 0.70418 ± 0.00015; (genetic background: wild type) 0.729 ± 0.012.

Turning to LRTTSSMEKKLN [ALG3 C-terminal 12 aa], the protein stability index was 0.7064 ± 0.00072 under setting [1] and 0.205 ± 0.0049 (genetic background: wild type).

LSADGIYTAVPN [PAU17 C-terminal 12 aa]: the protein stability index by setting is: under setting [1], 0.695 ± 0.018; (genetic background: wild type) 0.702 ± 0.011.

For LSAETGIRGEGE [YIL100W C-terminal 12 aa], the protein stability index came out at 0.6849 ± 0.0034 under setting [1] and 0.71 ± 0.029 (genetic background: wild type).

On to LSKDGIYTAVPN [PAU23 C-terminal 12 aa], for which the protein stability index runs as follows: under setting [1], 0.6917 ± 0.0018; (genetic background: wild type) 0.702 ± 0.0078.

As to LSKKDYSIDSIE [TPO3 C-terminal 12 aa], the protein stability index worked out at 0.726 ± 0.011 under setting [1] and 0.6981 ± 0.0023 (genetic background: wild type).

With LSKMYIGWLPFW [MEC1 C-terminal 12 aa], the protein stability index by setting is: under setting [1], 0.7227 ± 0.0057; (genetic background: wild type) 0.6826 ± 0.002.

Regarding LSLTLVSIIKTA [COG2 C-terminal 12 aa], the protein stability index under setting [1] is 0.618 ± 0.025 and the protein stability index (genetic background: wild type) stood at 0.193 ± 0.0064.

For the sequence “LSNQNSPLFLYH [YHR175W-A C-terminal 12 aa]”, the protein stability index under setting [1] was determined as 0.7053 ± 0.0058 and the protein stability index (genetic background: wild type) was found to be 0.705 ± 0.015.

For the sequence “LSPSYSCRYHGR [YPL152W-A C-terminal 12 aa]”, the protein stability index is, setting by setting: under setting [1], 0.7126 ± 0.0044; (genetic background: wild type) 0.6832 ± 0.004.

On to LSVIYMGWSPFY [TEL1 C-terminal 12 aa], for which the protein stability index under setting [1] turned out to be 0.716 ± 0.018 and the protein stability index (genetic background: wild type) was 0.773 ± 0.032.

In the case of LSVTLGEGKYHH [CSG2 C-terminal 12 aa], the protein stability index reads like this: under setting [1], 0.685 ± 0.03; (genetic background: wild type) 0.686 ± 0.034.

Turning to LTVLCVILGYVL [UTR2 C-terminal 12 aa], the protein stability index runs as follows: under setting [1], 0.5761 ± 0.00066; (genetic background: wild type) 0.645 ± 0.048.

For LTWSLAYSGAFS [ACF2 C-terminal 12 aa], the protein stability index reads like this: under setting [1], 0.7217 ± 0.0012; (genetic background: wild type) 0.686 ± 0.013.

Consider LVIDQITQLRQQ [COG1 C-terminal 12 aa], for which the protein stability index was 0.6966 ± 0.0015 under setting [1] and 0.6158 ± 0.0047 (genetic background: wild type).

On to LVIKRRGFEINT [PET122 C-terminal 12 aa], for which the protein stability index came to 0.66 ± 0.015 under setting [1] and 0.721 ± 0.043 (genetic background: wild type).

For LYGKYNYAAQKV [YDL124W C-terminal 12 aa], the protein stability index came to 0.692 ± 0.013 under setting [1] and 0.333 ± 0.014 (genetic background: wild type).

In the case of LYKRWVPGRNRD [SEN2 C-terminal 12 aa], the protein stability index by setting is: under setting [1], 0.696 ± 0.0095; (genetic background: wild type) 0.696 ± 0.034.

Consider LYVTVFNRSDEA [AVT7 C-terminal 12 aa], for which the protein stability index under setting [1] came to 0.6773 ± 0.0036 and the protein stability index (genetic background: wild type) was 0.6811 ± 0.0037.

On to MEDILDETTELD [ATG40 C-terminal 12 aa], for which the protein stability index reads like this: under setting [1], 0.7155 ± 0.0025; (genetic background: wild type) 0.715 ± 0.072.

For MEKENSGLIAFS [HOS2 C-terminal 12 aa], the protein stability index reads like this: under setting [1], 0.7089 ± 0.0061; (genetic background: wild type) 0.7064 ± 0.0059.

Consider MELWYTCLSKNL [YCR050C C-terminal 12 aa], for which the protein stability index is, setting by setting: under setting [1], 0.694 ± 0.048; (genetic background: wild type) 0.671 ± 0.034.

Regarding MERRARQQRGQD [MND2 C-terminal 12 aa], the protein stability index reads like this: under setting [1], 0.71114 ± 0.0003; (genetic background: wild type) 0.717 ± 0.046.

Regarding MFGVHDKSVIIE [NSE5 C-terminal 12 aa], the protein stability index runs as follows: under setting [1], 0.692 ± 0.058; (genetic background: wild type) 0.7 ± 0.032.

On to MFKFNVHKKSKV [TAD2 C-terminal 12 aa], for which the protein stability index runs as follows: under setting [1], 0.72 ± 0.015; (genetic background: wild type) 0.758 ± 0.048.

Consider MGDEYVSSDEDF [HEF3 C-terminal 12 aa], for which the protein stability index by setting is: under setting [1], 0.7279 ± 0.0024; (genetic background: wild type) 0.686 ± 0.054.

Consider MGISSNSFQGVN [KDX1 C-terminal 12 aa], for which the protein stability index by setting is: under setting [1], 0.70379 ± 8.7e-05; (genetic background: wild type) 0.6626 ± 0.0032.

As to MGVFILFLDYVG [UFE1 C-terminal 12 aa], the protein stability index stood at 0.277 ± 0.032 under setting [1] and 0.314 ± 0.013 (genetic background: wild type).

As to MKGPAALWDVQF [ARP9 C-terminal 12 aa], the protein stability index runs as follows: under setting [1], 0.724 ± 0.012; (genetic background: wild type) 0.744 ± 0.044.

With MKRSASYTGAKV [TPS2 C-terminal 12 aa], the protein stability index under setting [1] came out at 0.7 ± 0.02 and the protein stability index (genetic background: wild type) was found to be 0.709 ± 0.043.

With MLCTLTGYQNND [NUP192 C-terminal 12 aa], the protein stability index runs as follows: under setting [1], 0.7282 ± 0.0051; (genetic background: wild type) 0.685 ± 0.017.

Take MPGGMPGMPGMM [HSP60 C-terminal 12 aa]: the protein stability index amounted to 0.7 ± 0.00077 under setting [1] and 0.709 ± 0.0041 (genetic background: wild type).

With MQRVSTQHEKET [PMA1 C-terminal 12 aa], the protein stability index under setting [1] was found to be 0.715 ± 0.0091 and the protein stability index (genetic background: wild type) turned out to be 0.698 ± 0.022.

Regarding MRLTHKSKKKMK [SUE1 C-terminal 12 aa], the protein stability index is, setting by setting: under setting [1], 0.72 ± 0.026; (genetic background: wild type) 0.695 ± 0.0075.

On to MSKLGLIPKDFQ [HIS4 C-terminal 12 aa], for which the protein stability index under setting [1] stood at 0.6931 ± 0.0056 and the protein stability index (genetic background: wild type) came out at 0.707 ± 0.036.

Regarding MSLLGLVPVDRM [MSR1 C-terminal 12 aa], the protein stability index is, setting by setting: under setting [1], 0.696 ± 0.00089; (genetic background: wild type) 0.688 ± 0.023.

MTGILKDYSHRV [TFA2 C-terminal 12 aa]: the protein stability index reads like this: under setting [1], 0.715 ± 0.0083; (genetic background: wild type) 0.723 ± 0.063.

For MVNEWIHGGFSL [PRC1 C-terminal 12 aa], the protein stability index under setting [1] came to 0.73 ± 0.025 and the protein stability index (genetic background: wild type) is 0.702 ± 0.019.

As for MYGLGIRDCCIM [RCY1 C-terminal 12 aa], the protein stability index is 0.7921 ± 0.0075 under setting [1] and 0.776 ± 0.088 (genetic background: wild type).

Take NAIKNWTGVNVK [MIC26 C-terminal 12 aa]: the protein stability index worked out at 0.7 ± 0.0014 under setting [1] and 0.695 ± 0.0088 (genetic background: wild type).

In turn, NAKKGSKIEEIE [PTC3 C-terminal 12 aa] gave a protein stability index under setting [1] of 0.6731 ± 0.0047 and a protein stability index (genetic background: wild type) of 0.6656 ± 0.0058.

On to NCIETFVAEKTT [SRB6 C-terminal 12 aa], for which the protein stability index worked out at 0.679 ± 0.014 under setting [1] and 0.669 ± 0.0071 (genetic background: wild type).

On to NDGTFLDEVTKN [OPI10 C-terminal 12 aa], for which the protein stability index runs as follows: under setting [1], 0.6922 ± 0.0066; (genetic background: wild type) 0.687 ± 0.03.

NDKGEQVVGGNE [TMA16 C-terminal 12 aa]: the protein stability index stood at 0.663 ± 0.042 under setting [1] and 0.717 ± 0.04 (genetic background: wild type).

As for NDLITYMTKAAK [CYC7 C-terminal 12 aa], the protein stability index is, setting by setting: under setting [1], 0.722 ± 0.031; (genetic background: wild type) 0.756 ± 0.14.

As to NEDSMEIDDDLD [HSP104 C-terminal 12 aa], the protein stability index under setting [1] is 0.6988 ± 0.0014 and the protein stability index (genetic background: wild type) came out at 0.665 ± 0.021.

In turn, NEKENSLSLSRL [MGT1 C-terminal 12 aa] showed a protein stability index under setting [1] of 0.7183 ± 0.0017 and a protein stability index (genetic background: wild type) of 0.752 ± 0.058.

For the sequence NELRMSSSSLTN [VHS1 C-terminal 12 aa], the protein stability index by setting is: under setting [1], 0.6718 ± 0.0013; (genetic background: wild type) 0.693 ± 0.0083.

With NERGLSSNYQTI [FMP42 C-terminal 12 aa], the protein stability index is 0.7217 ± 0.0025 under setting [1] and 0.6736 ± 0.0013 (genetic background: wild type).

As to NGKTIKDATDNK [COX19 C-terminal 12 aa], the protein stability index by setting is: under setting [1], 0.669 ± 0.015; (genetic background: wild type) 0.6957 ± 0.0059.

The values above are taken from the supplement of paper PMC10724198.
